The text below walks through data of patent US20030013136A1, “Human KCR1 regulation of HERG potassium channel block” (priority 2000, published 2003).

Data set [1] concerns the target HERG/MiRP1 complex (human). Kind of data set: cell-based or functional assay.
In data set [2] the target is HERG (Homo sapiens, UniProt Q12809). The settings on record: 20 min. The method, then: (§1) The rat KCR1 cDNA was provided by Dr. Haruhiro Higashida, Kanazawa University, Japan. […] MiRP1 cDNA was provided by Dr. Steve Goldstein, (Yale University) in vector pCl-neo (Promega of Madison, Wis.).
(§2) Chinese hamster ovary K1 (CHO-K1) cells were obtained from the American Type Culture Collection (Rockville, Md.) and cultured in Ham's F-12 media (Gibco-BRL of Grand Island, N.Y.) supplemented with 10% fetal bovine serum and 1% pen-strep in a humidified, 5% CO2 incubator at 37° C. CHO-K1 cells were transiently transfected using the Lipofectamine transfection reagents and method (Gibco-BRL). When studying HERG alone or HERG+MiRP1, cells were cotransfected with pGFP-IRS (without KCR1). For experiments examining HERG+KCR1, or HERG+KCR1+MiRP1, GFP expression was obtained via the KCR1-containing pGFP-IRS plasmid. In all cases, cells displaying green fluorescence 48 to 72 hours after transfection were subjected to electrophysiologic analysis.
(§3) Potassium currents were recorded at room temperature (20-22° C.) using the whole-cell patch clamp technique. […] Drug effects were recorded in cells following a pre-drug period where control data were obtained (during pulsing), and a 4 minute drug wash-in period throughout which the cell was held at −80 mV.

Data set [3] addresses HERG+KCR1 (Homo sapiens, UniProt Q12809). The settings on record: 20 min. The method, then: as §1, §2, §3

Chain of HERG/MiRP1 complex (human) (A5H1P7 whole entry, one chain of several): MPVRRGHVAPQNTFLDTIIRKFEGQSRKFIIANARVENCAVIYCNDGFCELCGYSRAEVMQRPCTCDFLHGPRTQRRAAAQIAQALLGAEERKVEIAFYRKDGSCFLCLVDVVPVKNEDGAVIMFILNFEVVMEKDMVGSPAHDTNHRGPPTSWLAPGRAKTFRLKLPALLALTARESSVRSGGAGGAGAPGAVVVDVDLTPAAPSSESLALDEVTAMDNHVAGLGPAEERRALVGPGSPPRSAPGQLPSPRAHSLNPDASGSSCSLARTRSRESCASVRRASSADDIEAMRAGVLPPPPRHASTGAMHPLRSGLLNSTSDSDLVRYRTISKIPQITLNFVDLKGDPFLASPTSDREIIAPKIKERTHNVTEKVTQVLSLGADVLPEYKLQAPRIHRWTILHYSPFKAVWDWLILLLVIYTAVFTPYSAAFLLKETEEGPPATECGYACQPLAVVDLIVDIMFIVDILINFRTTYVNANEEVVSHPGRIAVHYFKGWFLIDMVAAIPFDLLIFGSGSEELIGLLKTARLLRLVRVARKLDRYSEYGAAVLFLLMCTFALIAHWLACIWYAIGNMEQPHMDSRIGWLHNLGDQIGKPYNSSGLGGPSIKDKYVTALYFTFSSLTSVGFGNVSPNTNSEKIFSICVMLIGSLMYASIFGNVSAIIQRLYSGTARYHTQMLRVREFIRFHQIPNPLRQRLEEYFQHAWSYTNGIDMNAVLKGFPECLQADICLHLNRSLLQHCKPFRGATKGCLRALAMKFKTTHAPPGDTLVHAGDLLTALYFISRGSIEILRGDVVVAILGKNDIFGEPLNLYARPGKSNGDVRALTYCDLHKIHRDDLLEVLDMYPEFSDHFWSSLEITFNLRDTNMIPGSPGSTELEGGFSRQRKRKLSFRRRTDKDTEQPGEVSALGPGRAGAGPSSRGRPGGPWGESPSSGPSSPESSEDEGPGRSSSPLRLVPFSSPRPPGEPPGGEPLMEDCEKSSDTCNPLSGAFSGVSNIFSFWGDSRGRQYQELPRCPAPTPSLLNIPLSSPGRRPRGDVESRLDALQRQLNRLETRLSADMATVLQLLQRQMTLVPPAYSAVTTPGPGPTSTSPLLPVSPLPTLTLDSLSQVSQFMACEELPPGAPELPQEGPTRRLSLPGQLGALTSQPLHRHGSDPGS
Chain of HERG (Q12809 whole entry): as the sequence (A5H1P7 whole entry, one chain of several) above
Chain of HERG+KCR1 (Q12809 whole entry): as the sequence (A5H1P7 whole entry, one chain of several) above

For rat KCR1 (from UniProt O88788 1-474), in data set [1], the fast time constant of deactivation at -120 mV, HERG+KCR1+MiRP1 (whole-cell patch clamp, CHO-K1 cells) came to 22.5 and the slow time constant of deactivation at -120 mV, HERG+KCR1+MiRP1 (whole-cell patch clamp, CHO-K1 cells) stood at 251.

With `CC(C)NC[C@@H](O)c1ccc(NS(C)(=O)=O)cc1` [d-sotalol], the “HERG tail current remaining, % of the pre-drug control” value in data set [2] was 54±9%; in data set [3], 95±6%.
